Measurements: patent US20200234789A1, “DESIGNED PROTEINS FOR LIGAND BINDING” (THE REGENTS OF THE UNIVERSITY OF CALIFORNIA, priority 2017, published 2020)

Tests used:
[1] = Porphyrin binding to apo-protein, electronic absorption spectra ((CF3)4PFe loading)
Experimental: FIG. 9. Scaled absorption spectra of (CF3)4PM/PS1 complexes, M=Zn^2+, Fe^2+. Loading of (CF3)4PFe into PS1 was ˜40-50%, likely due to the extreme insolubility of the porphyrin. The featured bands at 550-650 nm indicate that (CF3)4PFe is in a homogenous environment in the ferrous state. […] The peak at 423 nm is also indicative of a homogenous binding environment. The absorption spectra were scaled to reflect the relative extinction coefficients of the porphyrins. Buffer=50 mM NaPi, 100 mM NaCl, pH 7.5.
A 2-fold excess of the cofactor (CF3)4PZn was added from a 4 mM DMSO stock solution to a 50 mM NaPi, 100 mM NaCl, pH 7.5 buffer with apo-protein (Note that final DMSO concentrations were kept <1%.). Buffer solution of apo-PS1 protein was heated for 5 minutes at 50° C., (CF3)4PZn was then added from the DMSO stock solution, the resultant mixture was vortexed for 5 seconds, and placed back in the heat block at 50° C. for 15 minutes, with vortexing every 3 minutes. The protein/cofactor solution was then spun at 14000×g in a Amicon Ultra-0.5 mL centrifuge filter for 10 min, three times, replacing the buffer to 0.5 mL after each 10 min spin. Finally, the protein solution was spun for 4 min at 12000×g in an Amicon ultrafree-MC GV filter (UFC30GV0S). The holo-PS1 sample was then used for spectroscopic experiments immediately afterward, and diluted to an appropriate concentration if necessary. […]

[2] = Porphyrin binding titration to determine KD (apo-PS1 titrated into (CF3)4PZn, absorbance at 423 nm); conditions: water-insoluble porphyrin solubilized with 1% w/v octylglucopyranoside detergent; 100 mM NaCl, 50 mM NaPi, pH 7.5; read-out: dissociation constant of binding, KD
Experimental: (§1) FIGS. 3A-3D. Biophysical characterization of apo- and holo-PS1. FIG. 3A: Electronic absorption and emission spectra of (CF3)4PZn/PS1 holo-protein and (CF3)4PZn in toluene solvent. […] FIG. 3B: Determination of KD by apo-PS1 titration into a buffer solution (100 mM NaCl, 50 mM NaPi, pH 7.5) of (CF3)4PZn with 1% w/v octyl-b-D-glucopyranoside. […] FIG. 3C: Circular dichroism (CD) spectra of apo- and holo-PS1 in 50 mM NaPi, 100 mM NaCl, pH 7.5 as a function of temperature. The transitions appear reversible based on the fact that the spectra are identical after cooling to room temperature. Units are in molar residue ellipticity. […] FIG. 3D: Pump-probe transient absorption spectra of (CF3)4PZn bound in the interior of holo-PS1 at 21° C. and 100° C. […] Inset exemplifies identical transient dynamics (primarily intersystem crossing from S1 to T1) at ΔAbs.=482 nm (scaled). […]
2 μM of (CF3)4PZn was solubilized in a 1 mL solution of 50 mM NaPi, 100 mM NaCl, pH 7.5 buffer by inclusion of 1% w/v octyl-b-D-glucopyranoside. 2 μL of a 102 uM stock of apo-PS1 (0.2 μM aliquots) was titrated into the 1 mL solution containing the porphyrin, and an electronic absorption spectrum was measured until >2.5 equivalents of protein were added. Absorbance changes at 423 nm, due to His-Zn coordination-induced spectral shifts of the porphyrin, were fit to a single-site, protein-ligand binding model.

[3] = Pump-probe transient absorption spectroscopy of bound (CF3)4PZn at 21 and 100° C.; assay type: physicochemical; conditions: non-natural porphyrin (CF3)4PZn
Experimental: as §1
Ultrafast transient absorption spectra were obtained using standard pump-probe methods^9 with a time resolution of approximately 200 fs. Elevated temperature experiments were performed in a custom-made temperature block of anodized aluminum, the temperature of which was controlled by heating rods and monitored by a pair of thermocouples wired to a PID through a solid-state relay. […]

[4] = Size exclusion chromatography (analytical gel filtration), oligomeric state; assay type: physicochemical; conditions: 100 μM; 50 mM NaPi, 150 mM NaCl, pH 7.0; superdex 75 5/150
From the text: FIG. 7A-7B. […] FIG. 7A: Analytical ultracentrifugation. Solutions of apo- and holo-PS1 were centrifuged at speeds ranging from 25,000 r.p.m. to 45,000 r.p.m. and monitored by absorbance at 280 nm. Parameters were globally fit to the data. Single-species fitting agrees well with the data over the entire range and yields the molecular weight of apo-PS1 […] and holo-PS1 12.24±0.91 kD, which agrees well with the 12.86 kD weight of PS1. […] Partial specific volumes were estimated from SEDNTERP^15 for amino acid side chains. FIG. 7B: Analytical gel filtration analysis of apo- and holo-PS1. Detection wavelengths are labeled as the same color as their respective curves. […] The small peak near 1.05 ml elution volume in holo-PS1 is unbound (excess), aggregated porphyrin eluting in the void volume of the superdex 75 5/150 column. Samples were run at concentrations of 100 μM and 37 μM for apo and holo, respectively, in 50 mM NaPi, 150 mM NaCl, pH 7.0 buffer.
Gel filtration profiles were obtained using a Superdex 75 5/150 column on an FPLC system (GE Healthcare AKTA). […] The approximate molecular weight (MWapp) was calculated from a standard curve obtained with the GE LMW standard protein kit. […]

B1: PS1: de novo designed porphyrin-binding four-helix bundle protein; designed sequence SEQ ID NO:1, expressed His-tag-cleaved sequence SEQ ID NO:2 (protein)
chain: SEFEKLRQTGDELVQAFQRLREIFDKGDDDSLEQVLEEIEELIQKHRQLFDNRQEAADTEAAKQGDQWVQLFQRFREAIDKGDKDSLEQLLEELEQALQKIRELAEKKN
binding of (CF3)4PFe (ferrous iron-derivative of the porphyrin) [1]: binds
loading of (CF3)4PFe ([1]; 50 mM NaPi, 100 mM NaCl, pH 7.5): 40-50%
Kd [2]: 45 nM
temperature up to which the porphyrin is bound [3]: up to 100 °C
degree of dimerization relative to the monomer peak [4]: < 5%
